B1: EPB41L3 (parent)
chain: SDYISEFRFAPNHTKELEDKVIEL
B2: ZNF263 (parent)
chain: QRTHTGEKPYKCPECGEIFAHSSN

Variants of: B1
Experiment: protein stability index of a GFP-peptide fusion (GPS, HEK-293T) (PSI 1-6); higher = more stable
Conditions: c terminus: a fixed tail appended
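Note: lentivirally expressed fusions sorted by FACS into six bins by GFP to DsRed ratio, PSI derived from sequencing read proportions per bin multiplied by bin number.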

Variant | protein stability index
SDYISEFRFAPNHTKELEDKVIEE [L24E] | 2.65
SDYISEFRFAPNHTKELEDKVIED [L24D] | 3.11
SDYISEFRFAPNHTKELEDKVIEP [L24P] | 2.31
SDYISEFRFAPNHTKELEDKVIET [L24T] | 2.28
SDYISEFRFAPNHTKELEDKVIEA [L24A] | 2.42
SDYISEFRFAPNHTKELEDKVIEG [L24G] | 3.33
SDYISEFRFAPNHTKELEDKVIEF [L24F] | 2.31
SDYISEFRFAPNHTKELEDKVIEY [L24Y] | 2.08
SDYISEFRFAPNHTKELEDKVIEI [L24I] | 2.12
SDYISEFRFAPNHTKELEDKVIEQ [L24Q] | 2.71
SDYISEFRFAPNHTKELEDKVIER [L24R] | 2.69
SDYISEFRFAPNHTKELEDKVIES [L24S] | 2.69
SDYISEFRFAPNHTKELEDKVIEC [L24C] | 3.05
SDYISEFRFAPNHTKELEDKVIEK [L24K] | 2.96
SDYISEFRFAPNHTKELEDKVIEW [L24W] | 2.44
SDYISEFRFAPNHTKELEDKVIEN [L24N] | 2.25
SDYISEFRFAPNHTKELEDKVIEV [L24V] | 2.18
SDYISEFRFAPNHTKELEDKVIEH [L24H] | 2.65
SDYISEFRFAPNHTKELEDKVIEM [L24M] | 2.16
SDYISEFRFAPNHTKELEDKVWEL [I22W] | 2.45
SDYISEFRFAPNHTKELEDKVYEL [I22Y] | 2.29
SDYISEFRFAPNHTKELEDKVVEL [I22V] | 2.58
SDYISEFRFAPNHTKELEDKVQEL [I22Q] | 2.92

Variant | protein stability index
SDYISEFRFAPNHTKELEDKVSEL [I22S] | 3.18
SDYISEFRFAPNHTKELEDKVREL [I22R] | 3.03
SDYISEFRFAPNHTKELEDKVTEL [I22T] | 2.56
SDYISEFRFAPNHTKELEDKVISL [E23S] | 2.09
SDYISEFRFAPNHTKELEDKVIVL [E23V] | 2.38
SDYISEFRFAPNHTKELEDKVIYL [E23Y] | 2.38
SDYISEFRFAPNHTKELEDKVIWL [E23W] | 1.46
SDYISEFRFAPNHTKELEDKVINL [E23N] | 1.42
SDYISEFRFAPNHTKELEDKVITL [E23T] | 1.96
SDYISEFRFAPNHTKELEDKVIQL [E23Q] | 2.05
SDYISEFRFAPNHTKELEDKVIHL [E23H] | 2.18
SDYISEFRFAPNHTKELEDKVIIL [E23I] | 1.55
SDYISEFRFAPNHTKELEDKVIAL [E23A] | 1.9
SDYISEFRFAPNHTKELEDKVIGL [E23G] | 1.72
SDYISEFRFAPNHTKELEDKVICL [E23C] | 1.38
SDYISEFRFAPNHTKELEDKVIML [E23M] | 1.92
SDYISEFRFAPNHTKELEDKVIDL [E23D] | 2.01
SDYISEFRFAPNHTKELEDKVIFL [E23F] | 3.17
SDYISEFRFAPNHTKELEDKVILL [E23L] | 1.93
SDYISEFRFAPNHTKELEDKVIKL [E23K] | 1.75
SDYISEFRFAPNHTKELEDKVIPL [E23P] | 1.82
SDYISEFRFAPNHTKELEDKVIRL [E23R] | 2.02

Variants of: B2
Experiment: as above
Conditions: c terminus: a fixed tail appended

Variant | protein stability index
QRTHTGYKPYKCPECGEIFAHSSN [E7Y] | 2.36
QRTHTGFKPYKCPECGEIFAHSSN [E7F] | 2.71
QRTHTGCKPYKCPECGEIFAHSSN [E7C] | 3.93
QRTHTGQKPYKCPECGEIFAHSSN [E7Q] | 3.16
QRTHTGAKPYKCPECGEIFAHSSN [E7A] | 2.65
QRTHTGRKPYKCPECGEIFAHSSN [E7R] | 2.33
QRTHTGDKPYKCPECGEIFAHSSN [E7D] | 3.08
QRTHTGWKPYKCPECGEIFAHSSN [E7W] | 2.03
QRTHTGNKPYKCPECGEIFAHSSN [E7N] | 2.72
QRTHTGTKPYKCPECGEIFAHSSN [E7T] | 3.01
QRTHTGGKPYKCPECGEIFAHSSN [E7G] | 3
QRTHTGHKPYKCPECGEIFAHSSN [E7H] | 3.44
QRTHTGLKPYKCPECGEIFAHSSN [E7L] | 2.49
QRTHTGPKPYKCPECGEIFAHSSN [E7P] | 3.42
QRTHTGSKPYKCPECGEIFAHSSN [E7S] | 3.05
QRTHTGMKPYKCPECGEIFAHSSN [E7M] | 3.4
QRTHTGVKPYKCPECGEIFAHSSN [E7V] | 2.35
QRTHTGIKPYKCPECGEIFAHSSN [E7I] | 2.62
QRTHTGKKPYKCPECGEIFAHSSN [E7K] | 3.29
QRTHTPEKPYKCPECGEIFAHSSN [G6P] | 3.23
QRTHTKEKPYKCPECGEIFAHSSN [G6K] | 3.18
QRTHTDEKPYKCPECGEIFAHSSN [G6D] | 3.23
QRTHTWEKPYKCPECGEIFAHSSN [G6W] | 2.74
QRTHTSEKPYKCPECGEIFAHSSN [G6S] | 3.38
QRTHTIEKPYKCPECGEIFAHSSN [G6I] | 2.98

Variant | protein stability index
QRTHTREKPYKCPECGEIFAHSSN [G6R] | 2.51
QRTHTEEKPYKCPECGEIFAHSSN [G6E] | 3.71
QRTHTFEKPYKCPECGEIFAHSSN [G6F] | 2.79
QRTHTYEKPYKCPECGEIFAHSSN [G6Y] | 2.64
QRTHTVEKPYKCPECGEIFAHSSN [G6V] | 2.79
QRTHTMEKPYKCPECGEIFAHSSN [G6M] | 3.04
QRTHTHEKPYKCPECGEIFAHSSN [G6H] | 3.33
QRTHTQEKPYKCPECGEIFAHSSN [G6Q] | 3.49
QRTHTNEKPYKCPECGEIFAHSSN [G6N] | 2.85
QRTHTLEKPYKCPECGEIFAHSSN [G6L] | 3.27
QRTHTTEKPYKCPECGEIFAHSSN [G6T] | 3.34
QRTHTCEKPYKCPECGEIFAHSSN [G6C] | 4.26
QRTHTAEKPYKCPECGEIFAHSSN [G6A] | 3.27
KRTHTGEKPYKCPECGEIFAHSSN [Q1K] | 2.72
WRTHTGEKPYKCPECGEIFAHSSN [Q1W] | 2.01
GRTHTGEKPYKCPECGEIFAHSSN [Q1G] | 3.06
IRTHTGEKPYKCPECGEIFAHSSN [Q1I] | 2.54
LRTHTGEKPYKCPECGEIFAHSSN [Q1L] | 2.76
TRTHTGEKPYKCPECGEIFAHSSN [Q1T] | 2.82
ARTHTGEKPYKCPECGEIFAHSSN [Q1A] | 2.49
FRTHTGEKPYKCPECGEIFAHSSN [Q1F] | 2.74
HRTHTGEKPYKCPECGEIFAHSSN [Q1H] | 3.6
CRTHTGEKPYKCPECGEIFAHSSN [Q1C] | 4.76
YRTHTGEKPYKCPECGEIFAHSSN [Q1Y] | 2.57

Source: the supplement of paper PMC10567573
